From patent US9790551B2, “Use of TRPC6 mRNA levels in peripheral blood cells for early detection/diagnosis of senile dementia” (Aging Wise Biotechnology, Inc., priority 2013, dated 2017)

B1: TRPC5: TRPC family member TRPC5, overexpressed from plasmid as comparison (protein, UniProt Q9UL62 1-973, looked up)
chain: MAQLYYKKVNYSPYRDRIPLQIVRAETELSAEEKAFLNAVEKGDYATVKQALQEAEIYYNVNINCMDPLGRSALLIAIENENLEIMELLLNHSVYVGDALLYAIRKEVVGAVELLLSYRRPSGEKQVPTLMMDTQFSEFTPDITPIMLAAHTNNYEIIKLLVQKRVTIPRPHQIRCNCVECVSSSEVDSLRHSRSRLNIYKALASPSLIALSSEDPILTAFRLGWELKELSKVENEFKAEYEELSQQCKLFAKDLLDQARSSRELEIILNHRDDHSEELDPQKYHDLAKLKVAIKYHQKEFVAQPNCQQLLATLWYDGFPGWRRKHWVVKLLTCMTIGFLFPMLSIAYLISPRSNLGLFIKKPFIKFICHTASYLTFLFMLLLASQHIVRTDLHVQGPPPTVVEWMILPWVLGFIWGEIKEMWDGGFTEYIHDWWNLMDFAMNSLYLATISLKIVAYVKYNGSRPREEWEMWHPTLIAEALFAISNILSSLRLISLFTANSHLGPLQISLGRMLLDILKFLFIYCLVLLAFANGLNQLYFYYETRAIDEPNNCKGIRCEKQNNAFSTLFETLQSLFWSVFGLLNLYVTNVKARHEFTEFVGATMFGTYNVISLVVLLNMLIAMMNNSYQLIADHADIEWKFARTKLWMSYFDEGGTLPPPFNIIPSPKSFLYLGNWFNNTFCPKRDPDGRRRRRNLRSFTERNADSLIQNQHYQEVIRNLVKRYVAAMIRNSKTHEGLTEENFKELKQDISSFRYEVLDLLGNRKHPRSFSTSSTELSQRDDNNDGSGGARAKSKSVSFNLGCKKKTCHGPPLIRTMPRSSGAQGKSKAESSSKRSFMGPSLKKLGLLFSKFNGHMSEPSSEPMYTISDGIVQQHCMWQDIRYSQMEKGKAEACSQSEINLSEVELGEVQGAAQSSECPLACSSSLHCASSICSSNSKLLDSSEDVFETWGEACDLLMHKWGDGQEEQVTTRL
modifications: full-length
notes: TRPC family member TRPC5, overexpressed from plasmid as comparison
B2: 725/930aa: TRPC6 fragment 725~930aa expressed from plasmid (protein, UniProt Q9Y210 725-930, looked up, fragment)
chain: AMINSSFQEIEDDADVEWKFARAKLWFSYFEEGRTLPVPFNLVPSPKSLFYLLLKLKKWISELFQGHKKGFQEDAEMNKINEEKKLGILGSHEDLSKLSLDKKQVGHNKQPSIRSSEDFHLNSFNNPPRQYQKIMKRLIKRYVLQAQIDKESDEVNEGELKEIKQDISSLRYELLEEKSQNTEDLAELIRELGEKLSMEPNQEETN
B3: 437/633aa: TRPC6 fragment 437~633aa expressed from plasmid (protein, UniProt Q9Y210 437-633, looked up, fragment)
chain: RGPFMKFVAHAASFTIFLGLLVMNAADRFEGTKLLPNETSTDNAKQLFRMKTSCFSWMEMLIISWVIGMIWAECKEIWTQGPKEYLFELWNMLDFGMLAIFAASFIARFMAFWHASKAQSIIDANDTLKDLTKVTLGDNVKYYNLARIKWDPSDPQIISEGLYAIAVVLSFSRIAYILPANESFGPLQISLGRTVKD
B4: 389/510aa: TRPC6 fragment 389~510aa expressed from plasmid (protein, UniProt Q9Y210 389-510, looked up, fragment)
chain: SIWYENLSGLRQQTMAVKFLVVLAVAIGLPFLALIYWFAPCSKMGKIMRGPFMKFVAHAASFTIFLGLLVMNAADRFEGTKLLPNETSTDNAKQLFRMKTSCFSWMEMLIISWVIGMIWAEC
B5: 508/633aa: TRPC6 fragment 508~633aa expressed from plasmid (protein, UniProt Q9Y210 508-633, looked up, fragment)
chain: AECKEIWTQGPKEYLFELWNMLDFGMLAIFAASFIARFMAFWHASKAQSIIDANDTLKDLTKVTLGDNVKYYNLARIKWDPSDPQIISEGLYAIAVVLSFSRIAYILPANESFGPLQISLGRTVKD
B6: 389/930aa: TRPC6 fragment 389~930aa expressed from plasmid (protein, UniProt Q9Y210 389-930, looked up, fragment)
chain: SIWYENLSGLRQQTMAVKFLVVLAVAIGLPFLALIYWFAPCSKMGKIMRGPFMKFVAHAASFTIFLGLLVMNAADRFEGTKLLPNETSTDNAKQLFRMKTSCFSWMEMLIISWVIGMIWAECKEIWTQGPKEYLFELWNMLDFGMLAIFAASFIARFMAFWHASKAQSIIDANDTLKDLTKVTLGDNVKYYNLARIKWDPSDPQIISEGLYAIAVVLSFSRIAYILPANESFGPLQISLGRTVKDIFKFMVIFIMVFVAFMIGMFNLYSYYIGAKQNEAFTTVEESFKTLFWAIFGLSEVKSVVINYNHKFIENIGYVLYGVYNVTMVIVLLNMLIAMINSSFQEIEDDADVEWKFARAKLWFSYFEEGRTLPVPFNLVPSPKSLFYLLLKLKKWISELFQGHKKGFQEDAEMNKINEEKKLGILGSHEDLSKLSLDKKQVGHNKQPSIRSSEDFHLNSFNNPPRQYQKIMKRLIKRYVLQAQIDKESDEVNEGELKEIKQDISSLRYELLEEKSQNTEDLAELIRELGEKLSMEPNQEETN
B7: 1/405aa: TRPC6 fragment 1~405aa expressed from plasmid (protein, UniProt Q9Y210 1-405, looked up, fragment)
chain: MSQSPAFGPRRGSSPRGAAGAAARRNESQDYLLMDSELGEDGCPQAPLPCYGYYPCFRGSDNRLAHRRQTVLREKGRRLANRGPAYMFSDRSTSLSIEEERFLDAAEYGNIPVVRKMLEECHSLNVNCVDYMGQNALQLAVANEHLEITELLLKKENLSRVGDALLLAISKGYVRIVEAILSHPAFAEGKRLATSPSQSELQQDDFYAYDEDGTRFSHDVTPIILAAHCQEYEIVHTLLRKGARIERPHDYFCKCNDCNQKQKHDSFSHSRSRINAYKGLASPAYLSLSSEDPVMTALELSNELAVLANIEKEFKNDYKKLSMQCKDFVVGLLDLCRNTEEVEAILNGDVETLQSGDHGRPNLSRLKLAIKYEVKKFVAHPNCQQQLLSIWYENLSGLRQQTMAV

The molecules below were run on Aβ levels in HEK293APP stable cells (assay: Aβ ELISA of culture medium, HEK293APP stable cells transfected with TRPC plasmids). Settings: Table 1; HEK293APP stable cell, 1 ug plasmid, medium ELISA after 48 hr; empty vector = 1.
Type: cell-based
Method: (§1) Upon collecting the culture medium of the cells, Aβ40 and Aβ42 levels were quantified with sandwich ELISA kit, respectively (purchased from Invitrogen). The forebrain of the mouse was dissected and separated, and then homogenized with GuHCL. After that, total Aβ was determined by ELISA. For determining TBST(Tris-Buffered Saline and 1% TritonX100, 1% SDS, 1% DOC) soluble and insoluble Aβ, upon TBST homogenation and centrifugation of the forebrain of the mouse, the supernatant was determined for TBST soluble Aβ by ELISA, and the precipitate was determined for TBST insoluble Aβ by ELISA upon another GuHCL homogenate.
HEK293APP stable cell line was cultured in DMEM culture solution (containing 200 ng/ml G418) with 10% FBS. C0S7C99 cells were cultured in MEM/F12 culture solution (containing 0.4 ug/ml hygromycin B) with 5% FBS, 1% NEAA, and 200 mM Glutamax. All the transfection was conducted by using Lipofectamin 2000 (Invitrogen).
HEK293 cells were inoculated to 60 mm dishes. When the density was close to 80%, 4 ug APP plasmid was transfected with Lipofectamine 2000. After 4 h, the culture medium was replaced and 400 ng/ml of G418 was added. Cells were passage 2 days later and G418 in the culture was maintained at 400 ng/ml. After 2-3 weeks, the cells not transected died gradually, and the survived cells were HEK293 cells expressing APP. Then, G418 was reduced to and maintained at 200 ng/ml.
TRPC6 or TRPC5 was overexpressed in HEK293APP stable cell lines respectively (Cells were passaged into 12-well plates till the densities were close to 80%. Each well was transfected with 1 ug plasmid using Lipofectamine 2000, and the Aβ levels in the medium were determined with ELISA after 48 hr).
Afterwards, HEK293APP stable cells were passaged in 12-well plate till the density approached 80%. Each well was transfected with lug plasmid using Lipofectamine 2000, and the Aβ levels in the culture medium were determined with ELISA after 48 h. The targeting fragment was primarily narrowed down to 437-507aa.
The […] of TRPC6 contains the first transmembrane regions(TM1), the first extracellular loop (Loop1), and the second transmembrane regions (TM2). To further narrow down the active domain, we constructed 3 variant plasmids, with TM2 region replacement by TM1 region (C6-mut1), reversal of TM2 sequence (C6-mut2) or point mutations within TM2 region(C6-mut3). Then HEK293APP stable cells were passaged in 12-well plate. When the density was close to 80%, every well was transfected with lug plasmid using Lipofectamine 2000, and the Aβ levels in the medium were determined with ELISA after 48 h. The active fragment was further narrowed down to 487-507aa.
Molecule B1 has an Aβ40 of 0.9900 ± 0.02548 and an Aβ42 of 0.9488 ± 0.02053.

Same assay, conditions: Table 4; TRPC6 fragments, HEK293APP stable cells, 48 h; empty vector = 1
In the case of B2, the Aβ40 is reported as 1.007 ± 0.07289 and the Aβ42 is reported as 0.9822 ± 0.0099. B3 gave an Aβ40 of 0.8146 ± 0.07986 and an Aβ42 of 0.7096 ± 0.09708. Molecule B4 has an Aβ40 of 0.5959 ± 0.08036 and an Aβ42 of 0.6131 ± 0.1299. Work on B5 yielded an Aβ40 of 1.016 ± 0.04396 and an Aβ42 of 1.042 ± 0.02037. B6 was tested, and the Aβ40 was 0.7699 ± 0.07728 and the Aβ42 was 0.7217 ± 0.0695. In the case of B7, the Aβ40 is reported as 0.9674 ± 0.06376 and the Aβ42 is reported as 0.9822 ± 0.03662.

These molecules were tested on Aβ levels in HEK293APP stable cells (assay: Aβ ELISA, HEK293APP stable cells treated with TAT fusion peptides). Settings: Table 8; HEK293APP stable cells; TAT = 1.
Type: cell-based
Method: as §1
In this Example, the second transmembrane domain (487-507aa, TM2) was selected to fuse with cell penetrating peptide TAT and the fusion peptide TAT-TM2 and the mutant thereof TAT-TM2mut were obtained. Their effects on Aβ levels were examined in HEK293APP stable cells.
6.1.2 The Effect of Different Doses of Fusion Protein TAT-TM2 on Aβ Levels in HEK293APP Stable Cells were Determined.
To search for shorter fragments which could inhibit Aβ levels, TM2 was divided into N- and C-terminals and fused with TAT respectively. The effects of TAT-TM2-N, TAT-TM2-C and TAT-TM2-C mutant on Aβ levels in HEK293APP cells was examined.
For “TAT-TM2-mut: mutated TAT-TM2 peptide, SEQ ID NO.:22, TSCFSWMEMLIISDDIGMDDAGRKKRRQRRRC (fusion protein)”, the Aβ40 was 0.89 ± 0.07 and the Aβ42 was 0.93 ± 0.09.

Same assay, conditions: Table 9; TAT-TM2 variants, HEK293APP cells; TAT = 1
“TAT-TM2-C-m1: TAT-TM2-C mutant, SEQ ID NO.:25, DDSWVIGMIWAGRKKRRQRRRC (fusion protein)” gave an Aβ40 of 0.54 ± 0.01 and an Aβ42 of 0.33 ± 0.07. “TAT-TM2-C-m2: TAT-TM2-C mutant, SEQ ID NO.:26, IISDDIGMIWAGRKKRRQRRRC (fusion protein)” was tested, and the Aβ40 was 1.09 ± 0.10 and the Aβ42 was 1.04 ± 0.15. For “TAT-TM2-C-m3: TAT-TM2-C mutant, SEQ ID NO.:27, IISWVIGMDDAGRKKRRQRRRC (fusion protein)”, the Aβ40 was 1.07 ± 0.11 and the Aβ42 was 1.07 ± 0.13. With “TAT-TM2-C: C-terminal of TM2 fused with TAT, SEQ ID NO.:24, IISWVIGMIWAGRKKRRQRRRC (fusion protein)” the Aβ40 was 0.71 ± 0.07 and the Aβ42 was 0.72 ± 0.03. “TAT-TM2-N: N-terminal of TM2 fused with TAT, SEQ ID NO.:23, TSCFSWMEMLGRKKRRQRRRC (fusion protein)” was tested, and the Aβ40 was 0.97 ± 0.04 and the Aβ42 was 0.97 ± 0.04.
